Assay results from US20100017897A1 (CHILDREN S HOSPITAL OF PHILADELPHIA, published 2010).

T1: cytosolic domain of human PRRG4 (human, UniProt Q9BZD6 139-226)
T1 construct: Expressed in insect cells; also called cytosolic hPPRG4; cystosolic domain of hPPRG4; not shown: purified by HA and histidine columns, so HA and His tags are implied
T1 sequence: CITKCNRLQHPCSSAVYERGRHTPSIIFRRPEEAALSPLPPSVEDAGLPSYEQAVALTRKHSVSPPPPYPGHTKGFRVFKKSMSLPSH

B1: Grb2-related adaptor protein, SH3 Domain #2 (other, UniProt Q13588 158-217, looked up)
chain: PGACFAQAQFDFSAQDPSQLSFRRGDIIEVLERPDPHWWRGRSCGRVGFFPRSYVQPVHL
notes: domain: SH3 Domain #2; Array spot; also called Grap-D2
B2: Peroxisomal membrane protein PEX13 (other, UniProt Q92968 272-336, looked up)
chain: DDHVVARAEYDFAAVSEEEISFRAGDMLNLALKEQQPKVRGWLLASLDGQTTGLIPANYVKILGK
notes: domain: SH3 domain; Array spot; also called PEXD
B3: Lyn, Src family of non-receptor protein Tyrosine kinase (other, UniProt P07948 63-123, looked up)
chain: EQGDIVVALYPYDGIHPDDLSFKKGEKMKVLEEHGEWWKAKSLLTKKEGFIPSNYVAKLNT
notes: domain: SH3 domain; Array spot
B4: Abelson-related protein; Arg tyrosine kinase (other, UniProt P42684 107-167, looked up)
chain: SDPNLFVALYDFVASGDNTLSITKGEKLRVLGYNQNGEWSEVRSKNGQGWVPSNYITPVNS
notes: domain: SH3 domain; Array spot; also called Abl2
B5: PAK-interacting exchange factor beta (other, UniProt Q14155 184-243, looked up)
chain: NNQLVVRAKFNFQQTNEDELSFSKGDVIHVTRVEEGGWWEGTLNGRTGWFPSNYVREVKA
notes: domain: SH3 domain; Array spot; also called Y124
B6: Bruton Tyrosine Kinase (other, UniProt Q06187 214-274, looked up)
chain: SELKKVVALYDYMPMNANDLQLRKGDEYFILEESNLPWWRARDKNGQEGYIPSNYVTEAED
notes: domain: SH3 domain; Array spot; also called BTK
B7: Nebulette (other, UniProt O76041 954-1014, looked up)
chain: PNLRTYRAMYDYSAQDEDEVSFRDGDYIVNVQPIDDGWMYGTVQRTGRTGMLPANYIEFVN
notes: domain: SH3 domain; Array spot; also called NEBL
B8: Tyrosine-protein kinase Tec (other, UniProt P42680 179-239, looked up)
chain: NSEEIVVAMYDFQAAEGHDLRLERGQEYLILEKNDVHWWRARDKYGNEGYIPSNYVTGKKS
notes: as for B3
B9: Osteoclast stimulating factor 1 (other, UniProt Q92882 12-71, looked up)
chain: GQVKVFRALYTFEPRTPDELYFEEGDIIYITDMSDTNWWKGTSKGRTGLIPSNYVAEQAE
notes: domain: SH3 domain; Array spot; also called OSF

These binders were tested against T1, cytosolic domain of human PRRG4 (assay: SH3 domain array probed with purified cytosolic hPRRG4; listed as a hit).
Procedure: (§1) The cystosolic domain of hPPRG4 was expressed in insect cells and proteins were purified by HA and histidine columns. Interactions of cytosolic hPPRG4 with different SH3 and WW domains were tested by incubating purified hPRRG4 proteins with arrays containing SH3 and WW domains of several proteins. After incubation, PRRG4 bound to several proteins, most of which are non-receptor tyrosine kinases or scaffolding proteins. These newly identified binding partners provide valuable therapeutic targets for the isolation and characterization of therapeutic agents that impact PRRG4 mediated oncogenesis.

| binding result | Binder |
| --- | --- |
| binds | B1 |
| binds | B2 |
| binds | B3 |
| binds | B4 |
| binds | B5 |
| binds | B6 |
| binds | B7 |
| binds | B8 |
| binds | B9 |

The binders below were run against T1, cytosolic domain of human PRRG4 (assay: WW domain array probed with purified cytosolic hPRRG4; listed as a hit).
Excerpt: PRRG4 has one WW-binding domain in its cytosolic domain. WW domains are involved in several cellular processes including cell cycle control and cell proliferation. In order to analyze the possible interactions of PRRG4 with different WW motif containing proteins, the cytosolic domain of human PRRG4 was purified by our group and used in TranSignal WW Domain Arrays. This array contains WW domains from 67 different human proteins and each WW domain is spotted in duplicate. […] Among these proteins Yes-Associated Protein1 (YAP 1) and Nedd4 are particularly important as they are known to play essential roles in several cellular activities including cell proliferation. FIGS. 9 and 10 are tables that show the proteins that are used on the array.
as §1

| binding result | Binder |
| --- | --- |
| binds | LPLPPGWEMTFTATGQRYFLNHIEKITTWQDPRK (other, human, UniProt Q9GZV5 124-157, looked up, domain: WW domain; Array spot) [transcriptional co-activator with PDZ-binding motif (TAZ)] |
